{"source": "paper PMC9023283", "target": "mature METTL8-Iso1 (Met1-Gln22 deleted) with a C-terminal His6 tag (human)", "assay": "SEC", "data": [{"substance": "mature METTL8-Iso1 (Met1-Gln22 deleted) with a C-terminal His6 tag (enzyme)", "values": [{"measurement": "stoichiometry N", "result": 8}]}]}
